Experimental data taken from patent US9403908B2, “Method for altering hematopoietic progenitor cell adhesion, differentiation, and migration” (The Regents of the University of California, priority 2003, dated 2016).

B1: rsVCAM: recombinant soluble VCAM, a competitive inhibitor of integrin α4β1 function (protein)
chain: FKIETTPESRYLAQIGDSVSLTCSTTGCESPFFSWRTQIDSPLNGKVTNEGTTSTLTMNPVSFGNEHSYLCTATCESRKLEKGIQVEIYSFPKDPEIHLSGPLEAGKPITVKCSVADVYPFDRLEIDLLKGDHLMKSQEFLEDADRKSLETKSLEVTFTPVIEDIGKVLVCRAKLHIDEMDSVPTVRQAVKELQVYISPKNTVISVNPSTKLQEGGSVTMTCSSEGLPAPEIFWSKKLDNGNLQHLSGNATLTLIAMRMEDSGIYVCEGVNLIGKNRKEVELIVQEKPFTVEISPGPRIAAQIGDSVMLTCSVMGCESPSFSWRTQIDSPLSGKVRSEGTNSTLTLSPVSFENEHSYLCTVTCGHKKLEKGIQVELYSFPRDPEIEMSGGLVNGSSVTVSCKVPSVYPLDRLEIELLKGETILENIEFLEDTDMKSLENKSLEMTFIPTIEDTGKALVCQAKLHIDDMEFEPKQRQSTQTLYVNVAPRDTTVLVSPSSILEEGSSVNMTCLSQGFPAPKILWSRQLPNGELQPLSENATLTLISTKMEDSGVYLCEGINQAGRSRKEVELIIQVTPKDIKLTAFPSESVKEGDTVIISCTCGNVPETWIILKKKAETGDTVLKSIDGAYTIRKAQLKDAGVYECESKNKVGSQLRSLTLDVQGRENNKDYFSPE

Key:
[1] = test system: bFGF or VEGF induced angiogenesis in Matrigel; test: Murine Matrigel angiogenesis assay (bFGF or VEGF); assay type: in vivo, mouse; settings: peptide antagonist; 50 μM in bFGF matrigel, nude mice (FIG. 19G)
Protocol: (B, C) Adhesion of endothelial cells to plastic plates coated with 5 μg/ml CS-1 fibronectin, in the presence of medium, anti-α4β1 (HP1/2) or control antibodies (P1F6). (D) Cryosections from bFGF stimulated, saline or antibody-treated CAMs were immunostained to detect blood vessel expression of von Willebrand Factor. (E) Angiogenesis was initiated in FVB/N mice by corneal transplantation of polymerized pellets containing 400 ng/ml of VEGF. Animals (n=5) were treated on day 0 and day 3 with anti-α4β1 (PS/2) or control IgG (cIgG). Fifteen minutes prior to sacrifice on day 5, mice were injected intravenously with endothelial specific lectin, Bandeira simplifolia-FITC and tissues were cryopreserved. Angiogenic response to VEGF was quantified as the percent green fluorescent area visible under high power magnification (100×). […] Matrigel plugs were homogenized in RIPA buffer and fluorescence intensity determined.
[…] Microvessel density was quantified in 10 randomly selected 200× microscopic fields for each plug in each treatment group (n=8). […] Angiogenic response to VEGF was quantified as the percent green fluorescent area visible at 100× magnification. […] Tumor dimensions were determined every other day and tumor mass was determined after four weeks of treatment. […] Statistical significance was determined using Student's t-test.

human CD34+ stem cells = test: CD34+ stem cell adhesion to HUVEC monolayers; assay type: cell-based; settings: 60 minutes, 25 μg/ml HP2/1 or P1F6 (FIG. 34d-e)
Protocol: Adhesion assays were performed on plastic 48 well plates coated with 5 μg/ml of recombinant H120 CS-1 fibronectin (from Martin J. Humphries, University of Birmingham, UK) as described (Kim et al. (2000) Am. J. Pathol. 156, 1345-1362). Stem cells were incubated on coated plates for 30 minutes in the presence of 25 μg/ml anti-α4β1_(HP2/1) or anti-αvβ5 (P1F6, from Dr. David Cheresh, the Scripps Research Institute). CMTMR labeled stem cells were incubated in HEPES buffered serum free culture medium in the presence of 25 μg/ml HP2/1 or P1F6 on HUVEC monolayers for 60 minutes at 37° C. Unbound cells were removed by washing gently with PBS. Cells were fixed in 3.7% parafomaldeyde. Representative fields were photographed at 200× and the number of cells adhering per field was quantified in five representative fields per treatment condition.

[2] = test system: endothelial progenitor cells (EPCs); test: Adhesion of DiI-labeled EPCs to endothelial (HUVEC) monolayers; assay type: cell-based, human; settings: DiI-labeled EPCs on proliferating HUVEC monolayers; FIG. 17D
Protocol: (A-B) Adhesion of purified EPCs on plastic plates coated with (A) 5 μg/ml CS-1 fibronectin or (B) recombinant soluble VCAM in the presence of medium, anti-α4β1 (HP1/2) or control antibodies (P1F6). (C) Adhesion of DiI-labeled purified EPCs to HUVEC monolayers VCAM in the presence of medium, anti-α4β1 (HP1/2) or control antibodies (P1F6). Cells were quantified by counting adherent red fluorescent cells per 200× microscopic field. (D) Adhesion of DiI-labeled purified EPCs to HUVEC monolayers in the presence of medium, rsVCAM or control protein. Statistical significance was determined using Student's t-test.
To determine whether EPCs can attach to proliferating vascular endothelium that has been stimulated by angiogenic growth factors, we plated EPCs labeled with DiI-acetylated LDL onto proliferating endothelial monolayers. EPCs bound strongly to endothelium in a α4β1 dependent manner (FIG. 17C) and that rsVCAM blocked EPC attachment to endothelial monolayers (FIG. 17D). […] Thus, α4β1 mediates the attachment of EPCs to VCAM on vascular endothelium. […]

Molecule	neovascularization in Matrigel model [1]	stem cell adhesion to endothelial cell (EC) monolayers (human CD34+ stem cells)	EPC attachment to endothelial monolayers [2]
EILDV	blocked	–	–
B1	–	blocked	blocked
